According to patent US20140096284A1, “METHOD FOR THE DELIVERY OF MOLECULES LYOPHILIZED ONTO MICROPARTICLES TO PLANT TISSUES” (priority 2012, published 2014):

Assays:
onion epidermis tissue [1] = assay: Biolistic delivery of molecules lyophilized onto 0.6 μm gold microcarriers to onion epidermis tissue; assay type: cell-based; details: 275 μg per shot lyophilized onto 0.6 μm gold, one day after bombardment
Procedure: 2 μL of 0.6 μm gold particle stock was mixed with 1 μg of GFP plasmid pLMNC95 or 2 μL of a 400 ng/μL, TRITC-BSA solution. The mixture was poured on a macrocarrier, frozen in liquid nitrogen and freeze-dry for 1 hour prior to onion epidermis tissue bombardment.
Onion epidermis tissue was obtained from the scale leaves of white onion bulbs. Rectangular (3×2.5 cm) pieces were peeled right before the bombardment and placed in solid agar media (0.5 mM of 2-(N-morpholino)ethanesulfonic acid (MES), 15 g L^−1 Bacto agar (BD), pH 5.7) with the peeled side upwards. For quantitative measurements, epidermis pieces of the same scale leaf were distributed among treatments. Tobacco leaves (Nicotiana tabacum var. Petite Havana) were obtained from 3-6 week old in vitro grown plants on MS media (MS medium (Murashige and Skoog, 1962), 2% sucrose, 2.5 g L^−1 gelrite, pH 5.7). Leaves were cut right before bombardment and put with the adaxial surface up on agar media. Hill maize immature embryos were obtained from immature ears provided by the Center for Plant Transformation—Iowa State University. […]
Bright field and fluorescence images were taken using a Zeiss Axio star plus microscope. […] For the green channel fluorescence images a GFP BP filter (Chroma Technology Corp.) was used (λex=470 nm, beam splitter=495 nm and λem=525 nm). […]

onion epidermis tissue [2] = assay: Biolistic delivery of air-dried or freeze-dried protein or DNA, with or without 0.6 μm gold, to onion epidermis; assay type: cell-based
Procedure: Previously, protein and 0.6 μm gold projectiles were mixed and poured on top of a macrocarrier of the gene gun, frozen in liquid nitrogen, and lyophilized or freeze-dried. The same experiment was repeated by pouring the protein/0.6 μm gold mixture over a macrocarrier and leaving it to dry on top of a bench for 1 hour or overnight, termed “air-dried” (FIG. 10A). The experiment was done with two different proteins, β-glucuronidase and DS-RED2. Onion epidermis tissues were bombarded using these macrocarriers. An experiment was conducted using β-glucuronidase and DS-RED2, air-dried directly onto the macrocarriers without 0.6 μm gold projectiles (FIG. 10B). […] An experiment was conducted to compare DNA coating based on CaCl2/spermidine precipitation, freeze-drying or air-drying, and 0.6 μm gold particles. […] A DNA containing solution was freeze-dried or air-dried (without 0.6 μm gold projectiles) directly onto macrocarriers. Onion epidermis tissues were bombarded and 1 to 20 fluorescent cells could be observed (FIG. 15 and FIG. 16). Even though the number of cells that were transfected is much lower than when using 0.6 μm gold, protein can be delivered without the use of projectiles.

[3] = tested on: onion epidermis cell tissues; assay: Bombardment of onion epidermis with liquid protein solutions; assay type: cell-based; details: liquid protein solution on macrocarrier; tissue damage was caused
Description: As a control, β-glucuronidase and DS-RED2 protein solutions were poured over the macrocarrier and onion epidermis cell tissues were bombarded. […] However, the use of lesser volumes, less harsh gene-gun conditions or other liquid propelling methodologies may allow for protein delivery with less tissue damage.

[4] = tested on: mouse ear pinna tissue cells; assay: Delivery of active β-glucuronidase to mouse ear pinna tissue cells; assay type: cell-based, CD-1 mice; details: 200 μg per shot air-dried with 90 μg 0.6 μm gold; 650 and 1100 psi; sixteen hours
Procedure: A mixture of 90 μg of 0.6 μm gold and 200 μg of β-glucuronidase per shot were air-dried onto the macrocarrier set for 2 hours. Ear pinnas of 8 week old CD-1 mice were dissected right after animals were euthanized. The tissues were disposed with the inner part of the ear upwards on an agar medium plate (FIG. 17A) and were immediately bombarded using the PDS-1000/He gene-gun at 650 psi or 1100 psi, 6 cm target distance and 28 mmHg vacuum. Samples were then soaked in X-gluc solution and incubated at 37° C. overnight. Sixteen hours later samples were examined under the microscope. […] Multiple gold particles (detected as dark dots) could be detected in different depths of the same cell (FIG. 17C). The localization of these blue cells in the bombarded tissue is the result of active β-glucuronidase protein delivery.

onion epidermis tissues = assay: Delivery of β-glucuronidase or plasmid DNA air dried onto tungsten particles to onion epidermis; assay type: cell-based; details: 200 μg per shot air-dried onto M5 or M17 tungsten; 1100 psi/6 cm
Procedure: M5 (0.4 μm in size) and M17 (1.1 μm in size) tungsten particles from Bio-Rad were used. 100 μg of each type of particle and 200 μg of β-glucuronidase enzyme or 1 μg of GFP expressing plasmid pLMNC95 were used per shot. The suspensions were air dried for 2 hours onto the macrocarrier-set. Onion epidermis tissues were bombarded at 1100 psi/6 cm. Samples bombarded with β-glucuronidase were incubated overnight at 37° C. in X-gluc solution as previously described.

onion epidermis tissue [5] = assay: Fluorescein diacetate staining, count of dead cells after bombardment; assay type: cell-based; details: 200 μg trypsin or 40 μg RNAse per shot lyophilized onto 0.6 μm gold
Procedure: Onion epidermis tissues were submerged in 10 mL of MS liquid media to which 100 μL of a 5 mg mL^−1 of fluorescein diacetate (Alfa Aesar) solution in acetone were added. The samples were incubated for 2-5 minutes and directly observed under the green channel filter of the fluorescence microscope. For quantitative measurements, 12 images (10.5×8 mm) were taken with the 5× microscope objective scattered every 0.5 cm (4 columns×3 rows). The total amount of dead cells found on each image was counted.
The high concentration of protein used per shot (250 μg per shot) and the lyophilization process could cause cell death by: (1) physical damage of the potential clumps produced after lyophilizing protein and microparticles and (2) excess of intracellular protein delivery reaching toxic levels. To assess cellular death, onion epidermis tissues were stained with fluorescein diacetate, which stains in fluorescent green the living cells, while the dead ones remain dark (FIG. 7A). […]
As another example of active enzyme delivery, trypsin and RNAse A were chosen. […] The number of dead cells was measured using fluorescein diacetate staining in samples not bombarded, bombarded only with 0.6 μm gold or with 200 μg of trypsin or 40 μg of RNAse per shot. […]

| Molecule | active enzyme delivery (blue cells after X-gluc staining) (onion epidermis tissue [1]) | protein delivery after bombardment (onion epidermis tissue [2]; air-dried directly onto macrocarriers without 0.6 μm gold) | degradation when subjected to air drying (onion epidermis tissue [2]; air-dried on macrocarrier) | protein delivery after bombardment (onion epidermis tissue [2]; air-dried with 0.6 μm gold on macrocarrier for 1 hour or overnight) | protein delivery after bombardment [3] | active enzyme delivery (blue cells after X-gluc incubation) [4] | active enzyme delivery (blue cells after X-gluc incubation) (onion epidermis tissues) | dead cells compared with controls without the enzymes (indirect measurement of enzyme activity) (onion epidermis tissue [5]) |
| --- | --- | --- | --- | --- | --- | --- | --- | --- |
| β-glucuronidase: enzyme (Sigma) detected by X-gluc histochemical staining (protein, UniProt P05804 1-603, looked up) Beta-glucuronidase: MLRPVETPTREIKKLDGLWAFSLDRENCGIDQRWWESALQESRAIAVPGSFNDQFADADIRNYAGNVWYQREVFIPKGWAGQRIVLRFDAVTHYGKVWVNNQEVMEHQGGYTPFEADVTPYVIAGKSVRITVCVNNELNWQTIPPGMVITDENGKKKQSYFHDFFNYAGIHRSVMLYTTPNTWVDDITVVTHVAQDCNHASVDWQVVANGDVSVELRDADQQVVATGQGTSGTLQVVNPHLWQPGEGYLYELCVTAKSQTECDIYPLRVGIRSVAVKGEQFLINHKPFYFTGFGRHEDADLRGKGFDNVLMVHDHALMDWIGANSYRTSHYPYAEEMLDWADEHGIVVIDETAAVGFNLSLGIGFEAGNKPKELYSEEAVNGETQQAHLQAIKELIARDKNHPSVVMWSIANEPDTRPQGAREYFAPLAEATRKLDPTRPITCVNVMFCDAHTDTISDLFDVLCLNRYYGWYVQSGDLETAEKVLEKELLAWQEKLHQPIIITEYGVDTLAGLHSMYTDMWSEEYQCAWLDMYHRVFDRVSAVVGEQVWNFADFATSQGILRVGGNKKGIFTRDRKPKSAAFLLQKRWTGMNFGEKPQQGGKQ | several blue cells could be observed | protein delivery also could be detected | not substantially degraded | protein delivery was achieved | no protein delivery was observed | several blue cells were localized in the tissues | several cells were showing blue coloration |  |
| trypsin: enzyme (Sigma) expected to digest intracellular protein (protein, UniProt P00760 24-246, looked up) Serine protease 1: IVGGYTCGANTVPYQVSLNSGYHFCGGSLINSQWVVSAAHCYKSGIQVRLGEDNINVVEGNEQFISASKSIVHPSYNSNTLNNDIMLIKLKSAASLNSRVASISLPTSCASAGTQCLISGWGNTKSSGTSYPDVLKCLKAPILSDSSCKSAYPGQITSNMFCAGYLEGGKDSCQGDSGGPVVCSGKLQGIVSWGSGCAQKNKPGVYTKVCNYVSWIKQTIASN |  |  |  |  |  |  |  | large amounts of dead cells |
| RNAse: enzyme (Sigma) expected to digest intracellular RNA content (protein, UniProt P61823 27-150, looked up) Ribonuclease pancreatic: KETAAAKFERQHMDSSTSAASSSNYCNQMMKSRNLTKDRCKPVNTFVHESLADVQAVCSQKNVACKNGQTNCYQSYSTMSITDCRETGSSKYPNCAYKTTQANKHIIVACEGNPYVPVHFDASV |  |  |  |  |  |  |  | large amounts of dead cells |
